According to article PMC8774185, “Open-Bundle Structure as the Unfolding Intermediate of Cytochrome c′ Revealed by Small Angle Neutron Scattering” (Biomolecules, 2022):
Several values for one entry are separate records, joined by “and”; a condition that tells them apart may be missing. Equal values may be shown once.

Tests used:
[1] = target: the molecule itself; test: small-angle neutron scattering (SANS); 5.3 mg/mL Cyt c′ in D2O, 20 mM phosphate buffer, pD 9.6; KWS-1 beam line; Rg and curve compared with those of the crystal dimer; MW ratio from I(0)/C against the pD 1.7 sample; dimer to monomers
[2] = target: the molecule itself; test: small-angle neutron scattering (SANS); 5.5 mg/mL Cyt c′ in D2O, 20 mM phosphate buffer, pD 6.4; KWS-1 beam line; Rg and curve compared with those of the crystal dimer; MW ratio from I(0)/C against the pD 1.7 sample; dimer to monomers

B1: Cytochrome c′ from Alcaligenes xylosoxidans NCIMB 11015 (natural protein, UniProt P00138 1-127, looked up)
chain: QFAKPEDAVKYRQSALTLMASHFGRMTPVVKGQAPYDAAQIKANVEVLKTLSALPWAAFGPGTEGGDARPEIWSDAASFKQKQQAFQDNIVKLSAAADAGDLDKLRAAFGDVGASCKACHDAYRKKK
modifications: heme prosthetic group embedded in the C-terminal region
notes: Cytochrome c′ (c-type cytochrome, four-α-helix bundle) of Alcaligenes xylosoxidans NCIMB 11015; helices A(Ala3-Lys31), B(Asp37-Phe59), C(Ala76-Asp98), D(Asp103-Arg124); His120 axial ligand; crystal structures PDB 4WGZ and 4WGY are of the same protein; also called Cyt c′; Cyt c'
[1]
  stoichiometry N: 1.9 and 1.8
[2]
  stoichiometry N: 2.1 and 2
